Assay results: paper PMC6813310

Columns and labels:
[1] = molecular target: M2-1 fused to GFP, expressed by the recombinant virus RSV-M2-1-GFP (human respiratory syncytial virus, strain Long); assay: co-IP; GFP-Trap beads on lysates of HEp-2 cells infected with RSV-M2-1-GFP, 14 h p.i., without RNAse in the lysis; immunoblot
[2] = molecular target: M2-1 fused to GFP, expressed by the recombinant virus RSV-M2-1-GFP (human respiratory syncytial virus, strain Long); assay: co-IP; GFP-Trap beads on lysates of HEp-2 cells infected with RSV-M2-1-GFP or RSV-GFP (control), 14 h p.i., with RNAse (RNAse A or broad-spectrum nuclease) in the lysis; Tris 10 mM pH 7.5, NaCl 150 mM, IGEPAL CA-630 0.5%; overnight at 4 °C; immunoblot
[3] = molecular target: M2-1 fused to the N2 complementation fragment of NanoLuc (human respiratory syncytial virus, strain Long); assay: split reporter (BiFC, NanoBiT); NanoLuc two-hybrid (N2H) complementation in HEK293T cells, 24 h after transfection; lysates incubated 1 h with 100 µg/ml RNAse A; normalized luminescence ratio (NLR) over control protein pairs

Row | Substance | percent of total PABPC1 in the input co-immunoprecipitated [1] [%] | percent of total PABPC1 in the input co-immunoprecipitated [2] [%] | NLR as percent of the signal of the whole PABPC1 [3] [%]
1 | cytoplasmic polyA-binding protein 1 (PABPC1), endogenous in HEp-2 cells (from UniProt P11940 1-636) (natural protein) | 5.71 | 2.08 | –
2 | PABPC1 fragment 492-636 fused to the N1 fragment of NanoLuc (from UniProt P11940 492-636) (domain or fragment) | – | – | 50
